Biological target: T1, TTHA0973 (PaaR, TetR family) (Thermus thermophilus HB8) (UniProt Q5SJN5)
T1 sequence: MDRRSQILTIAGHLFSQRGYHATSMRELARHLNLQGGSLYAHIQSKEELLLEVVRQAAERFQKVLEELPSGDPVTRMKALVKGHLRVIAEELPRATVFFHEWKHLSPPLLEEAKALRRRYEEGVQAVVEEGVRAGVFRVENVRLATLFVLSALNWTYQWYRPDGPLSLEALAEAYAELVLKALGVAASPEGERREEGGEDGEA
Assay: BLI
Conditions: BLI with 11, 33, 100, 300 nM TTHA0973; EMSA 0-100 nM; buffer, salt, pH, temperature not given (cited protocol)

“CTAGGAATTCGTGCAGAGGTGAATACCTAGCGTTACTTTTACCATCCCTCCAGAAGCTTGGACA (double strand) [ST2_0973_0647bp]” showed a Kd of 99.5 nM.

From article PMC6651687
